Data as given in doi:10.1101/2024.12.18.629156.

Tests used:
[1] = tested on: His6-SUMO-ecHOP1-wHTH WT (Ectocarpus (E. siliculosus; model brown alga)); assay: EMSA
[2] = target: ecHOP1-HORMA (2xStrepII-ecHOP1-HORMA, residues 1-274) (Ectocarpus); assay: ITC

| Kd [2] [µM] | Substance | Kd [1] [µM] |
| --- | --- | --- |
|  | 167 bp Widom DNA | 0.25 |
| 7.2 | MBP-ecHOP1 CM1-1 (closure motif 1 of ecHOP1 isoform 1, residues 567-600) (domain or fragment) |  |
| 10.6 | MBP-ecHOP1 CM2-1 (closure motif 2 of ecHOP1 isoform 1, residues 665-694) (domain or fragment) |  |
| 60.3 | MBP-ecRED1 CM1 (putative closure motif 1 of ecRED1) (domain or fragment) |  |
